Results taken from paper PMC10698503, “Phosphatase specificity principles uncovered by MRBLE:Dephos and global substrate identification” (Molecular Systems Biology, 2023).

Target: His-PP1γ (UniProt P36873)
Test: ITC; peptide (approximately 450 µM, syringe) titrated into PP1γ (~35 µM, cell); 25°C; 50 mM sodium phosphate, 150 mM NaCl, 0.5 mM TCEP, pH 7.5; single-site model

His-PP1γ, sequence (P36873 whole entry): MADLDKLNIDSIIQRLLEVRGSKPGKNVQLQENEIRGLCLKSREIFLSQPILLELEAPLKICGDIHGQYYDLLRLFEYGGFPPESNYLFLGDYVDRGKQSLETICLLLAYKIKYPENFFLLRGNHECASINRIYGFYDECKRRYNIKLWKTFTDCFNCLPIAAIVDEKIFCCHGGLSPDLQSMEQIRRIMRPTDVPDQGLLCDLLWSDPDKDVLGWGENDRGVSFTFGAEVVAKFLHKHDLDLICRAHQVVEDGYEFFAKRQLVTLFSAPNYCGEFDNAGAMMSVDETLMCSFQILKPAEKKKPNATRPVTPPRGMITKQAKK

Kd [µM] | Substance
3.46 | Sororin 76-96 pS83 peptide PRRSPRI(pS)…
4.51 | Nipp1 197-209 pT202 peptide AKNSRV(pT)FSEDDEIW
1.73 | KNL1 1441-1455 pS1448 peptide KLNSKRV(pS)FKLPKDQW
7.24 | Sororin 76-96 pS79 peptide PRR(pS)…
